In publication PMC4944944 (2016):

Molecular target: F-actin prepared from muscle actin (Oryctolagus cuniculus (Rabbit), UniProt P68135)
Experiment: F-actin co-sedimentation

B1: Flag::mCherry::CHDP-1 (protein)
chain: MSEEIKKIEEVAEQDKAPKVPTTEPPVDVPAPVTEEAPKVEEAVAEIAAPAAAEGETATAAAAAPEEKKKSGGVARRFTFNKRWGKHRDAEASTPKEPEAPKDPKEDVLGWIAQQIPQAVHKANYQVIDWVQKTAIPEEGERKTIPGKDQATTRNQFIGFFKDGDVLAKLANALEPGAVEVAAAEENADAAAQKEVQKKNIDAFGAWAQKTLGTEAAPVTNEDLLEKGKAGYTAVFQTLWQLGVQAKEKFDKEGFNVDTIVQLANSVVKSGLLTTILGFFRRNRQAAAAVEEPKDETAAAEGAGEAKEEGATGEVADTADEPVAVKQETSAPAAVAAN
- binding result: no binding
